According to article PMC10319729 (Scientific Reports, 2023):

Molecular target: T1, LGR4 (HA-LGR4) over-expressed on HEK293 cells (UniProt Q9BXB1 25-951)
T1 construct: Plasmid and cell line described in earlier work; also called HEK293-LGR4; full-length LGR4; source: HEK293 cells over-expressing the receptor (HEK293-LGR4), on cells
Experiment: whole-cell binding, fluorescence plate reader; His-tagged ligand in 3x serial dilution on cells in 96-well plates, on ice 1 h, washed, fixed with 4.2% paraformaldehyde, Alexa488-labeled anti-His antibody; half-maximum binding (KD) from a three-parameter dose-response fit
Conditions: one partner purified

Kd: 2.2 ± 0.3 nM
B1: R2FuTSP-His (RSPO2 furin domain with TSP domain, His-tagged) (domain or fragment, UniProt Q6UXX9 22-205, looked up)
chain: QGNRWRRSKRASYVSNPICKGCLSCSKDNGCSRCQQKLFFFLRREGMRQYGECLHSCPSGYYGHRAPDMNRCARCRIENCDSCFSKDFCTKCKVGFYLHRGRCFDECPDGFAPLEETMECVEGCEVGHWSEWGTCSRNNRTCGFKWGLETRTRQIVKKPVKDTILCPTIAESRRCKMTMRHCPG
notes: R-spondin 2 (RSPO2), furin domain with the thrombospondin-like (TSP) domain; source: bought: R&D Systems
